In US11015206B2, “Compositions and methods comprising sequences having hydroxyphenylpyruvate dioxygenase (HPPD) activity” (PIONEER HI-BRED INTERNATIONAL, INC., priority 2014, dated 2021):
Where a chain is given by its changes, count along the chain named.

B1: 360L: single substitution 360L in SEQ ID NO:2 (protein)
chain: MGPTPTATAAGAAVAAASAAEQAAFRLVGHRNFVRFNPRSDRFQTLAFHHVELWCADAASAAGRFSFALGVPLAARSDLSTGNSAHASLLLRSGSLSLLFTAPYAHGADAATAALPSFSAAAARRFAADHGLAVRAVALRVADAEDAFRASVAAGARPAFGPVDLGRGFRLAEVELYGDVVLRYVSYPDGAAGEPFLPGFEGVASPGAADYGLSRFDHIVGNVPELAPAAAYMAGFTGFHEFAEFTTEDVGTTESGLNSMALANNSENVLLPLNEPVHGTKRRSQIQTFLDHHGGPGVQHIALASDDVLRTLREMRARSAMGGFEFLPPPLSDYYDGVRRCAGDVLTEAQINECQELGVLVDRDDQGVLLQIFTKPVGDRPTFFLEIIQRIGCMEKDEKGQEYQKGGCGGFGKGNFGQLFKSIEDYEKSLEAKQAAAAATAQGS
modifications: Zea mays variant form created by artificial means.
B2: 390N: single substitution 390N in SEQ ID NO:2 (protein)
chain: B1 chain with L360M, R390N
modifications: Zea mays variant form created by artificial means.
B3: 205T: single substitution 205T in SEQ ID NO:2 (protein)
chain: B1 chain with S205T, L360M
modifications: Zea mays variant form created by artificial means.
B4: 431F: single substitution 431F in SEQ ID NO:2 (protein)
chain: B1 chain with L360M, E431F
modifications: Zea mays variant form created by artificial means.
B5: 227G: single substitution 227G in SEQ ID NO:2 (protein)
chain: B1 chain with A227G, L360M
modifications: Zea mays variant form created by artificial means.
B6: 214T: single substitution 214T in SEQ ID NO:2 (protein)
chain: B1 chain with S214T, L360M
modifications: Zea mays variant form created by artificial means.
B7: 189P: single substitution 189P in SEQ ID NO:2 (protein)
chain: B1 chain with D189P, L360M
modifications: Zea mays variant form created by artificial means.
B8: 191L: single substitution 191L in SEQ ID NO:2 (protein)
chain: B1 chain with A191L, L360M
modifications: Zea mays variant form created by artificial means.

Each molecule was assayed on 4-hydroxyphenylpyruvate dioxygenase (HPPD) (assay: HPPD activity coupled assay with HGD; substrate saturation kinetic parameters (kcat, KM)). Conditions: Table 6.
Type: biochemical, Z. mays
Outline: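 Coupled continuous assay: His-tagged HPPD (5 to 240 nM, E. coli-expressed, Ni-NTA-purified) with 50 nM P. aeruginosa HGD in 25 mM Hepes pH 7, 2 mM ascorbate, 10 μM FeSO4; maleylacetoacetate followed at 320 nm. KM and Vmax from Lineweaver-Burke fits over 3.33–100 μM HPP.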
Work on B1 yielded a Km of 1.71 µM. With B2 the Km was 2.86 µM. Work on B3 yielded a Km of 2.72 µM. Work on B4 yielded a Km of 1.77 µM. B5 gave a Km of 2.61 µM. For B6, the Km was 2.94 µM. Work on B7 yielded a Km of 3.35 µM. B8 was tested, and the Km was 2.74 µM.

Same assay, conditions: Table 6; single substitutions in SEQ ID NO:2
In the case of B1, the kcat is reported as 0.543 s⁻¹. Molecule B2 has a kcat of 0.837 s⁻¹. Work on B3 yielded a kcat of 0.573 s⁻¹. B4 was tested, and the kcat was 0.513 s⁻¹. B5 was tested, and the kcat was 0.755 s⁻¹. For B6, the kcat was 1.4 s⁻¹. With B7 the kcat was 0.697 s⁻¹. B8 was tested, and the kcat was 0.548 s⁻¹.

The molecules below were run on 4-hydroxyphenylpyruvate dioxygenase (HPPD) (assay: ON rate ratio: HPPD reaction rate with vs without inhibitor in the 70 to 90 second interval). Conditions: Table 5; tembotrione.
Type: biochemical, Z. mays
Outline: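 Time courses of HPPD reactions, 60 or 120 nM enzyme with 100 μM HPP substrate, run with and without 4 μM inhibitor (e.g. mesotrione, tembotrione). Value is the rate with inhibitor over rate without, taken over 70–90 s; higher ratio reflects slower kON.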
B1 was tested, and the “ON ratio (parameters with tembotrione)” value was 0.77. With B2 the “ON ratio (parameters with tembotrione)” value was 0.75. With B3 the “ON ratio (parameters with tembotrione)” value was 0.74. In the case of B4, the “ON ratio (parameters with tembotrione)” value is reported as 0.80. B5 was tested, and the “ON ratio (parameters with tembotrione)” value was 0.79. With B6 the “ON ratio (parameters with tembotrione)” value was 0.74. B7 was tested, and the “ON ratio (parameters with tembotrione)” value was 0.76. B8 was tested, and the “ON ratio (parameters with tembotrione)” value was 0.77.

The molecules below were run on 4-hydroxyphenylpyruvate dioxygenase (HPPD) (assay: Insensitivity parameter (ON × OFF) and trait fitness (ON × OFF × kcat/KM or × kcat)). Conditions: DKN (diketonitrile form of isoxaflutole).
Type: biochemical, Z. mays
Outline: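 Calculated, not measured directly: ON rate ratio × OFF rate ratio gives an insensitivity parameter serving as a KD surrogate.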
With B1 the “Insensitivity parameter, ON × OFF” value was 0.34. B2 was tested, and the “Insensitivity parameter, ON × OFF” value was 0.29. For B3, the “Insensitivity parameter, ON × OFF” value was 0.30. B4 was tested, and the “Insensitivity parameter, ON × OFF” value was 0.26. For B5, the “Insensitivity parameter, ON × OFF” value was 0.26. B6 was tested, and the “Insensitivity parameter, ON × OFF” value was 0.21. B7 was tested, and the “Insensitivity parameter, ON × OFF” value was 0.32. With B8 the “Insensitivity parameter, ON × OFF” value was 0.38.

Same assay, conditions: Mesotrione; Table 6
For B1, the “Insensitivity parameter, ON × OFF” value was 0.51. For B2, the “Insensitivity parameter, ON × OFF” value was 0.45. In the case of B3, the “Insensitivity parameter, ON × OFF” value is reported as 0.47. In the case of B4, the “Insensitivity parameter, ON × OFF” value is reported as 0.53. B5 was tested, and the “Insensitivity parameter, ON × OFF” value was 0.52. B6 was tested, and the “Insensitivity parameter, ON × OFF” value was 0.41. B7 was tested, and the “Insensitivity parameter, ON × OFF” value was 0.51. In the case of B8, the “Insensitivity parameter, ON × OFF” value is reported as 0.45.

Same assay, conditions: Sulcotrione
B1 was tested, and the “Insensitivity parameter, ON × OFF” value was 0.63. With B2 the “Insensitivity parameter, ON × OFF” value was 0.58. In the case of B3, the “Insensitivity parameter, ON × OFF” value is reported as 0.60. B4 was tested, and the “Insensitivity parameter, ON × OFF” value was 0.59. For B5, the “Insensitivity parameter, ON × OFF” value was 0.63. In the case of B6, the “Insensitivity parameter, ON × OFF” value is reported as 0.50. B7 was tested, and the “Insensitivity parameter, ON × OFF” value was 0.62. In the case of B8, the “Insensitivity parameter, ON × OFF” value is reported as 0.56.

Same assay, conditions: Table 5; tembotrione
For B1, the “ON × OFF × kcat, Value” was 4.41. For B2, the “ON × OFF × kcat, Value” was 5.00. With B3 the “ON × OFF × kcat, Value” was 3.72. In the case of B4, the “ON × OFF × kcat, Value” is reported as 3.61. B5 was tested, and the “ON × OFF × kcat, Value” was 4.09. B6 was tested, and the “ON × OFF × kcat, Value” was 4.03. B7 was tested, and the “ON × OFF × kcat, Value” was 4.31. B8 was tested, and the “ON × OFF × kcat, Value” was 3.35.

Same assay, conditions: Table 5; tembotrione; fold vs maize wild type HPPD
In the case of B1, the “ON × OFF × kcat, Fold vs wt” value is reported as 4.12 and the “ON × OFF, fold vs wt” value is reported as 32.6. B2 was tested, and the “ON × OFF × kcat, Fold vs wt” value was 4.67 and the “ON × OFF, fold vs wt” value was 32.4. B3 was tested, and the “ON × OFF × kcat, Fold vs wt” value was 3.48 and the “ON × OFF, fold vs wt” value was 29.0. In the case of B4, the “ON × OFF × kcat, Fold vs wt” value is reported as 3.37 and the “ON × OFF, fold vs wt” value is reported as 24.5. In the case of B5, the “ON × OFF × kcat, Fold vs wt” value is reported as 3.83 and the “ON × OFF, fold vs wt” value is reported as 23.2. B6 was tested, and the “ON × OFF × kcat, Fold vs wt” value was 3.76 and the “ON × OFF, fold vs wt” value was 20.2. For B7, the “ON × OFF × kcat, Fold vs wt” value was 4.02 and the “ON × OFF, fold vs wt” value was 32.3. B8 was tested, and the “ON × OFF × kcat, Fold vs wt” value was 3.13 and the “ON × OFF, fold vs wt” value was 30.5.

Same assay, conditions: Table 5; tembotrione; insensitivity parameter
B1 was tested, and the “ON × OFF (parameters with tembotrione)” value was 0.17. In the case of B2, the “ON × OFF (parameters with tembotrione)” value is reported as 0.17. For B3, the “ON × OFF (parameters with tembotrione)” value was 0.15. In the case of B4, the “ON × OFF (parameters with tembotrione)” value is reported as 0.13. With B5 the “ON × OFF (parameters with tembotrione)” value was 0.12. For B6, the “ON × OFF (parameters with tembotrione)” value was 0.10. With B7 the “ON × OFF (parameters with tembotrione)” value was 0.16. B8 was tested, and the “ON × OFF (parameters with tembotrione)” value was 0.16.

Same assay, conditions: Tembotrione
In the case of B1, the “Insensitivity parameter, ON × OFF” value is reported as 0.25. For B2, the “Insensitivity parameter, ON × OFF” value was 0.20. B3 was tested, and the “Insensitivity parameter, ON × OFF” value was 0.22. For B4, the “Insensitivity parameter, ON × OFF” value was 0.19. With B5 the “Insensitivity parameter, ON × OFF” value was 0.22. In the case of B6, the “Insensitivity parameter, ON × OFF” value is reported as 0.17. For B7, the “Insensitivity parameter, ON × OFF” value was 0.25. For B8, the “Insensitivity parameter, ON × OFF” value was 0.33.

Same assay, conditions: Topramezon
In the case of B1, the “Insensitivity parameter, ON × OFF” value is reported as 0.32. For B2, the “Insensitivity parameter, ON × OFF” value was 0.27. In the case of B3, the “Insensitivity parameter, ON × OFF” value is reported as 0.29. With B4 the “Insensitivity parameter, ON × OFF” value was 0.27. For B5, the “Insensitivity parameter, ON × OFF” value was 0.28. With B6 the “Insensitivity parameter, ON × OFF” value was 0.23. B7 was tested, and the “Insensitivity parameter, ON × OFF” value was 0.31. In the case of B8, the “Insensitivity parameter, ON × OFF” value is reported as 0.37.

The molecules below were run on 4-hydroxyphenylpyruvate dioxygenase (HPPD) (assay: Estimate of kcat from initial rate at saturating hydroxyphenylpyruvate without inhibitor (ON rate ratio assay)). Conditions: Table 5; single substitutions in Round 7 variant 9070 (SEQ ID NO:2); estimate from initial rate at saturating hydroxyphenylpyruvate without inhibitor.
Type: biochemical, Z. mays
Outline: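 Reactions used 60 or 120 nM HPPD and saturating 100 μM hydroxyphenylpyruvate without inhibitor. kcat was estimated from the initial rate at the known enzyme concentration.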
B1 showed a kcat of 0.442 s⁻¹. In the case of B2, the kcat is reported as 0.505 s⁻¹. With B3 the kcat was 0.418 s⁻¹. B4 gave a kcat of 0.482 s⁻¹. B5 showed a kcat of 0.577 s⁻¹. B6 was tested, and the kcat was 0.653 s⁻¹. With B7 the kcat was 0.437 s⁻¹. With B8 the kcat was 0.358 s⁻¹.

These molecules were tested on 4-hydroxyphenylpyruvate dioxygenase (HPPD) (assay: OFF rate ratio: release of inhibitor from pre-formed enzyme-inhibitor complex). Conditions: Table 5; tembotrione.
Type: biochemical, Z. mays
Outline: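 HPPD (7.2 μM) pre-incubated 1 h at RT with inhibitor (8 μM), then diluted into 25 mM Hepes pH 7, 2 mM ascorbate, 10 μM FeSO4, 100 μM HPP, 50 nM HGD; A320 followed 12 min. Ratio = steady-state rate with inhibitor over initial rate of inhibitor-free enzyme.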
B1 was tested, and the “OFF ratio (parameters with tembotrione)” value was 0.22. In the case of B2, the “OFF ratio (parameters with tembotrione)” value is reported as 0.22. For B3, the “OFF ratio (parameters with tembotrione)” value was 0.20. B4 was tested, and the “OFF ratio (parameters with tembotrione)” value was 0.16. B5 was tested, and the “OFF ratio (parameters with tembotrione)” value was 0.15. B6 was tested, and the “OFF ratio (parameters with tembotrione)” value was 0.14. In the case of B7, the “OFF ratio (parameters with tembotrione)” value is reported as 0.22. B8 was tested, and the “OFF ratio (parameters with tembotrione)” value was 0.20.
